For experiment [1], the target named is rat HA-NK1R (neurokinin 1 receptor) (rat) (UniProt P14600).
The target is the same in experiment [2]. As to the kind of experiment: high-content imaging fluorescent competition binding on cells; HEK-NK1R cells in 96-well plates, increasing concentrations of Span or Span-Chol with 0.5 nM SP-TAMRA, 30 min in total, 37°C; granularity analysis, total cell binding (cell surface and intracellular); competitive binding, one site, fit logIC50.
For experiment [3] the target is unchanged. As to the kind of experiment: high-content imaging fluorescent competition binding on cells; HEK-NK1R cells in 96-well plates, preincubated with Span or Span-Chol for 3.5 h, then 0.5 nM SP-TAMRA for a further 30 min (4 h in total), 37°C; granularity analysis, total cell binding (cell surface and intracellular); competitive binding, one site, fit logIC50.
For experiment [4] the target is unchanged. The source holds these as a separate data set.
Experiment [5] shares this target. This is another data set of the same source.

UniProt P14600, sequence (P14600 whole entry): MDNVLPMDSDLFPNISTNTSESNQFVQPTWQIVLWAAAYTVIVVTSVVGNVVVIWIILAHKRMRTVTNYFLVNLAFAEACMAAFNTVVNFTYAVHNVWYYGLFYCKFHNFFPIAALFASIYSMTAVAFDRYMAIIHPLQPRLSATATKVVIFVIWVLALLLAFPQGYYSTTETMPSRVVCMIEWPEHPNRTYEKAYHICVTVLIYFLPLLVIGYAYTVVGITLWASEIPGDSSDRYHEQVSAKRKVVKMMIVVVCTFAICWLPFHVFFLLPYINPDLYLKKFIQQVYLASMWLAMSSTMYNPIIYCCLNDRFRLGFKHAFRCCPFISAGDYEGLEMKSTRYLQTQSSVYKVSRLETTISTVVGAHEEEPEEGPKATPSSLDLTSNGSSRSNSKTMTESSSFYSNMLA

The term pIC50 denotes the IC50 on a negative log10 scale, so that one unit is a factor of ten. A high value points to a small IC50. On to Spantide I (peptide), for which, in experiment [1], the inhibition of Ca^2+ transients to 1 nM SP in HEK-NK1R cells, 30 min preincubation with antagonist (blocks SP with NK1R); pIC50 amounted to 4.87. Also, the pIC50 in experiment [2] was found to be 5.99; in experiment [3] it was 5.55. In experiment [4], the inhibition of Ca^2+ transients to 1 nM SP in HEK-NK1R cells, continuous 4 h incubation with antagonist (blocks SP with NK1R); pIC50 was 5.11.
In experiment [1], “Spantide I conjugated to cholestanol via PEG linker (Span-Chol) (peptide)” registered an inhibition of Ca^2+ transients to 1 nM SP in HEK-NK1R cells, 30 min preincubation with antagonist (blocks SP with NK1R); pIC50 of 6.25. The pIC50 in experiment [2] was found to be 6.28; in experiment [3] it was 6.5. In addition, in experiment [5], the inhibition of Ca^2+ transients to 1 nM SP in HEK-NK1R cells, pulsed administration (30 min antagonist, wash, 3.5 h; 4 h total) (blocks SP with NK1R); pIC50 is 6.15. In experiment [4], the inhibition of Ca^2+ transients to 1 nM SP in HEK-NK1R cells, continuous 4 h incubation with antagonist (blocks SP with NK1R); pIC50 was determined as 6.36.

(Values after PMC7949131.)
